Laboratory results taken from patent US20090018070A1 (LABORATOIRES SERONO, published 2009).

T1: human FSH receptor (human, UniProt P23945 18-695)
T1 sequence (looked up): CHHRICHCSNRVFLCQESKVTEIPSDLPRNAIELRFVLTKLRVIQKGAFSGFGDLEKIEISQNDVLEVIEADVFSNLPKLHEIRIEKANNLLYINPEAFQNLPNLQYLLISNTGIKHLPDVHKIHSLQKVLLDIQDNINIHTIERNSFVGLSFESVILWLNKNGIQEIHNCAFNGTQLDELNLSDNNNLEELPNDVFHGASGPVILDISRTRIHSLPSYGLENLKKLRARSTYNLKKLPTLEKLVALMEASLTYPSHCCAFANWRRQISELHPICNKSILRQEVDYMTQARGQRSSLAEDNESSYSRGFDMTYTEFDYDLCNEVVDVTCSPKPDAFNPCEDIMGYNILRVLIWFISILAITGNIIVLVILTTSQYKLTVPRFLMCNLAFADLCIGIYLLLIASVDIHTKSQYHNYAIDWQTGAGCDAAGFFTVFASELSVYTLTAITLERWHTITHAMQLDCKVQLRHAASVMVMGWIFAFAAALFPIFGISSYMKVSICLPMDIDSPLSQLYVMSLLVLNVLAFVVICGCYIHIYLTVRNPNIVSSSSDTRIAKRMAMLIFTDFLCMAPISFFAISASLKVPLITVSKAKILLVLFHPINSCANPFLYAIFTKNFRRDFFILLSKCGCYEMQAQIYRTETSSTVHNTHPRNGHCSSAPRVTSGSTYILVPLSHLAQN


Target: T1, human FSH receptor
Assay: cell-based or functional assay

EC50 of cAMP production in CHO-FSHR cells	Binder
0.258 nM	GNRT mutant FSH (Clone 10C, alpha GNRT / beta GM1) (ligand) chain 1: not shown chain 2: NSCELTNITIAIEKEECRFCISINTTWCAGYCYTRDLVYKDPARPKIQKTCTFKNLTYETVRVPGCAHHADSLYTYPVATQCHCGKCDSDSTDCTVRGLGPSYCSFGEMKE
0.278 nM	GNFT mutant FSH (Clone 11C, alpha GNFT / beta GM1) (ligand) chain 1: not shown chain 2: NSCELTNITIAIEKEECRFCISINTTWCAGYCYTRDLVYKDPARPKIQKTCTFKNLTYETVRVPGCAHHADSLYTYPVATQCHCGKCDSDSTDCTVRGLGPSYCSFGEMKE
